Earlier results in article PMC3721222.
Like-named read-outs stand apart in the source and are kept apart here. Blank lines part the entries; values can stand above or below the substance they belong to.

Assays:
Cathepsin L = Cathepsin L (UniProt P07711)
Cathepsin B = Cathepsin B (UniProt P07858)
Papain (Carica papaya) [1] = biological target: Papain (Carica papaya) (UniProt P00784)
Trypsin (Bos taurus) [2] = biological target: Trypsin (Bos taurus) (UniProt P00760)
[3] = biological target: Leukocyte elastase (Homo sapiens) (UniProt P08246)
Trypsin (Bos taurus) [4] = biological target: Trypsin (Bos taurus) (UniProt P00760); remark: listed apart in the source
Plasmin (Homo sapiens) [5] = biological target: Plasmin (Homo sapiens) (UniProt P00747)
Chain of UniProt P00747 (P00747 581-810): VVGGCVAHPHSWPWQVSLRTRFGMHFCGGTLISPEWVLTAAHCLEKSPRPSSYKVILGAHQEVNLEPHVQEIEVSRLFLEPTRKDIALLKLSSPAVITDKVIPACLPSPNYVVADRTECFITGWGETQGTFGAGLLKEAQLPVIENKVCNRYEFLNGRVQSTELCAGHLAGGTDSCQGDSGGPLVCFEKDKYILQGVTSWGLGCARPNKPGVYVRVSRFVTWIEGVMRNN

Trypsin (Bos taurus) [6] = biological target: Trypsin (Bos taurus) (UniProt P00760); remark: listed apart in the source
Trypsin (Bos taurus) [7] = biological target: Trypsin (Bos taurus) (UniProt P00760); remark: listed apart in the source
Trypsin (Bos taurus) [8] = biological target: Trypsin (Bos taurus) (UniProt P00760); remark: listed apart in the source
Trypsin (Bos taurus) [9] = biological target: Trypsin (Bos taurus) (UniProt P00760); remark: listed apart in the source
Trypsin (Bos taurus) [10] = biological target: Trypsin (Bos taurus) (UniProt P00760); remark: listed apart in the source
Kv1.1 = Kv1.1 (UniProt Q09470)
Chain of UniProt Q09470 (Q09470 whole entry): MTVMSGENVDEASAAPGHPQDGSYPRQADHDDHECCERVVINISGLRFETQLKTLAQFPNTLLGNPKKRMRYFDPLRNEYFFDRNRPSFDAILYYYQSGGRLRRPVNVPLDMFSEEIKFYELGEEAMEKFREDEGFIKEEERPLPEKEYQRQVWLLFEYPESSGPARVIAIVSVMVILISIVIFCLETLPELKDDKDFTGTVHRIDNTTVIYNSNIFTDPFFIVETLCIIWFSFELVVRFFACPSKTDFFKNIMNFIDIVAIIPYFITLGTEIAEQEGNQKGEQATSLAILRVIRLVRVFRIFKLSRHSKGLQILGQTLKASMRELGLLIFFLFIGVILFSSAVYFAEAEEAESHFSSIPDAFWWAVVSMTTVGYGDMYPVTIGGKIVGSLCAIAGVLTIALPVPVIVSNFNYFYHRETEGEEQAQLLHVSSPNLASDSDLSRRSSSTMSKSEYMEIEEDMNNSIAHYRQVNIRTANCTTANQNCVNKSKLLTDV

Kv1.6 = Kv1.6 (UniProt P17658)
Chain of UniProt P17658 (P17658 whole entry): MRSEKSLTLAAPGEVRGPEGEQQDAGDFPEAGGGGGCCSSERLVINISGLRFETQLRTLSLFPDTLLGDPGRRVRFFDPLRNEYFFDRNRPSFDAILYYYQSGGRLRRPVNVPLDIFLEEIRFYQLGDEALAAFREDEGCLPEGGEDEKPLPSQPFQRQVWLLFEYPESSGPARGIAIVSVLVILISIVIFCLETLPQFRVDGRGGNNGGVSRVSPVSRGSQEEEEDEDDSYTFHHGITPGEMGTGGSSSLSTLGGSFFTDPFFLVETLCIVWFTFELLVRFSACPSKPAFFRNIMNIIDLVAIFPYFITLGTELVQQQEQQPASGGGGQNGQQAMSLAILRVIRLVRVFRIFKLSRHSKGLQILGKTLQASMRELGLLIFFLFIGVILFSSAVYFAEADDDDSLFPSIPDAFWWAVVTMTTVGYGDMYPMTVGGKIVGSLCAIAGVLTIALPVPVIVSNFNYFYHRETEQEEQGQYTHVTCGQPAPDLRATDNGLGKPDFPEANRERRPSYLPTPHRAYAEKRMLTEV

Kv1.2 = Kv1.2 (UniProt P16389)
Chain of UniProt P16389 (P16389 whole entry): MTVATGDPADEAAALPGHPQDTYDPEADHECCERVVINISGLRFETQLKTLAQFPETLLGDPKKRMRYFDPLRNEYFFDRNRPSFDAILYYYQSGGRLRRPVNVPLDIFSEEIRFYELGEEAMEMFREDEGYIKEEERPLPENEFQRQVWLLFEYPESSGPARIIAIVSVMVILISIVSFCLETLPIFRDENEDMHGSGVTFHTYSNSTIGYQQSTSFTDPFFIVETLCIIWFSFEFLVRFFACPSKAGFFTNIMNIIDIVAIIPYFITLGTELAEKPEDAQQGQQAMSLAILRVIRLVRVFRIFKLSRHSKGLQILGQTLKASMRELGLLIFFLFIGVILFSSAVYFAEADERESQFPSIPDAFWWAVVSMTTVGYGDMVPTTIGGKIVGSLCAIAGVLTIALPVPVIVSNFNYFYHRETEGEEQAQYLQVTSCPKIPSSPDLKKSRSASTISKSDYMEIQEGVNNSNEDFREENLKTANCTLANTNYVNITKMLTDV

[11] = biological target: Chymotrypsin (Bos taurus) (UniProt P00766)
Papain (Carica papaya) [12] = biological target: Papain (Carica papaya) (UniProt P00784); remark: listed apart in the source
Trypsin (Bos taurus) [13] = biological target: Trypsin (Bos taurus) (UniProt P00760); remark: listed apart in the source
[14] = biological target: Chymotrypsin (Bos taurus) (UniProt P00766); remark: listed apart in the source
Plasmin (Homo sapiens) [15] = biological target: Plasmin (Homo sapiens) (UniProt P00747); remark: listed apart in the source
Trypsin (Bos taurus) [16] = biological target: Trypsin (Bos taurus) (UniProt P00760); remark: listed apart in the source
[17] = biological target: Pancreatic elastase (Sus scrofa) (UniProt P00772)
Chain of UniProt P00772 (P00772 27-266): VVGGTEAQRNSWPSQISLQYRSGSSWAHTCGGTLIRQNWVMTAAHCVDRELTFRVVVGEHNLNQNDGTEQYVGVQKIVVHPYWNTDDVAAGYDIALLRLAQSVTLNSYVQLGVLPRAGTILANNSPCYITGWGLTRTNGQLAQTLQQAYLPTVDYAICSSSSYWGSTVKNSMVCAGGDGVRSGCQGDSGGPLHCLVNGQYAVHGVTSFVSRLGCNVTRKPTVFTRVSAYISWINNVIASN

Trypsin (Bos taurus) [18] = biological target: Trypsin (Bos taurus) (UniProt P00760); remark: listed apart in the source
[19] = biological target: Chymotrypsin (Bos taurus) (UniProt P00766); remark: listed apart in the source
Trypsin (Bos taurus) [20] = biological target: Trypsin (Bos taurus) (UniProt P00760); remark: listed apart in the source
Trypsin (Bos taurus) [21] = biological target: Trypsin (Bos taurus) (UniProt P00760); remark: listed apart in the source
[22] = biological target: Chymotrypsin (Bos taurus) (UniProt P00766); remark: listed apart in the source
Trypsin (Bos taurus) [23] = biological target: Trypsin (Bos taurus) (UniProt P00760); remark: listed apart in the source
[24] = biological target: Chymotrypsin (Bos taurus) (UniProt P00766); remark: listed apart in the source
Plasmin (Homo sapiens) [25] = biological target: Plasmin (Homo sapiens) (UniProt P00747); remark: listed apart in the source
[26] = biological target: Chymotrypsin (Bos taurus) (UniProt P00766); remark: listed apart in the source
[27] = biological target: Chymotrypsin (Bos taurus) (UniProt P00766); remark: listed apart in the source
Trypsin (Bos taurus) [28] = biological target: Trypsin (Bos taurus) (UniProt P00760); remark: listed apart in the source
[29] = biological target: Chymotrypsin (Bos taurus) (UniProt P00766); remark: listed apart in the source
Trypsin (Bos taurus) [30] = biological target: Trypsin (Bos taurus) (UniProt P00760); remark: listed apart in the source
[31] = biological target: Chymotrypsin (Bos taurus) (UniProt P00766); remark: listed apart in the source
Trypsin (Bos taurus) [32] = biological target: Trypsin (Bos taurus) (UniProt P00760); remark: listed apart in the source
Trypsin (Bos taurus) [33] = biological target: Trypsin (Bos taurus) (UniProt P00760); remark: listed apart in the source
Trypsin (Bos taurus) [34] = biological target: Trypsin (Bos taurus) (UniProt P00760); remark: listed apart in the source
Trypsin (Bos taurus) [35] = biological target: Trypsin (Bos taurus) (UniProt P00760); remark: listed apart in the source
[36] = biological target: Chymotrypsin (Bos taurus) (UniProt P00766); remark: listed apart in the source
Cathepsin D = Cathepsin D (UniProt P07339)
Chain of UniProt P07339 (P07339 65-412): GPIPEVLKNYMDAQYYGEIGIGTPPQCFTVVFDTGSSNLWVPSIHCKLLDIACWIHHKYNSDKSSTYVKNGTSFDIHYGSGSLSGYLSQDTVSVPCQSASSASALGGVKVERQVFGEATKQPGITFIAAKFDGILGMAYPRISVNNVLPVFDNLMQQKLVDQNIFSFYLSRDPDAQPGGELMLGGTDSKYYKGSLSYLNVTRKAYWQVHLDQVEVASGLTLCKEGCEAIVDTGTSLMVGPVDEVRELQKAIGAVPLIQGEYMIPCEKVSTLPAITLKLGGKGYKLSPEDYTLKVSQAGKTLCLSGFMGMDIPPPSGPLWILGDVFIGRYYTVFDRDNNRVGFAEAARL

Trypsin (Bos taurus) [37] = biological target: Trypsin (Bos taurus) (UniProt P00760); remark: listed apart in the source
Trypsin (Bos taurus) [38] = biological target: Trypsin (Bos taurus) (UniProt P00760); remark: listed apart in the source
Trypsin (Bos taurus) [39] = biological target: Trypsin (Bos taurus) (UniProt P00760); remark: listed apart in the source
[40] = biological target: Chymotrypsin (Bos taurus) (UniProt P00766); remark: listed apart in the source
Plasmin (Homo sapiens) [41] = biological target: Plasmin (Homo sapiens) (UniProt P00747); remark: listed apart in the source
[42] = biological target: Neutrophil elastase (Homo sapiens) (UniProt P08246)
Trypsin (Bos taurus) [43] = biological target: Trypsin (Bos taurus) (UniProt P00760); remark: listed apart in the source
Plasmin (Homo sapiens) [44] = biological target: Plasmin (Homo sapiens) (UniProt P00747); remark: listed apart in the source
Metalloprotease 2 = Metalloprotease 2 (UniProt P08253)
Chain of UniProt P08253 (P08253 110-660): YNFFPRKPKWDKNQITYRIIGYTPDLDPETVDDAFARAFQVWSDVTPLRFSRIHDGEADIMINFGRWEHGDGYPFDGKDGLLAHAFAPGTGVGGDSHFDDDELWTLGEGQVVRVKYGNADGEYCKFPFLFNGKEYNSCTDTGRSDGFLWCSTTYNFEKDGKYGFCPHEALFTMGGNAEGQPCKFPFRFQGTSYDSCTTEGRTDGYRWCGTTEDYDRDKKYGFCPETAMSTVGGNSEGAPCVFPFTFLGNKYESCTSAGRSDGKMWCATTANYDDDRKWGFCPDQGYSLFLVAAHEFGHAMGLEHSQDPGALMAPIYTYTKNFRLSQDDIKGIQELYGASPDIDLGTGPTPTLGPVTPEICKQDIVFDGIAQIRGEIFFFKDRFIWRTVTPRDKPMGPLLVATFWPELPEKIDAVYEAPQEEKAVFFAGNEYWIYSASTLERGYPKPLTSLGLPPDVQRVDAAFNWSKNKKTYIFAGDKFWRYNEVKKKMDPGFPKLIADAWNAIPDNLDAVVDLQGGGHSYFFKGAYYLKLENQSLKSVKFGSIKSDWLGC

Chain of UniProt P00760 (P00760 149-246): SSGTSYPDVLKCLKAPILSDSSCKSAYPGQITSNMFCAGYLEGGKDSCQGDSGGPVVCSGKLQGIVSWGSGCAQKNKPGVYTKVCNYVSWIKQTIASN
Chain of UniProt P00784 (P00784 134-345): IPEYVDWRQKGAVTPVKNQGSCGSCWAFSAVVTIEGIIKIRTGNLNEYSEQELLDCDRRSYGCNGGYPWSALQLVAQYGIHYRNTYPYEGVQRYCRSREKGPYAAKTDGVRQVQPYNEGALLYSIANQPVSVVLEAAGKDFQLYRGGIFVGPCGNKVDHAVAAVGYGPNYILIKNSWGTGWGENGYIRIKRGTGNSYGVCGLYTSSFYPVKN
Chain of UniProt P07711 (P07711 114-288, chain 1 of 2): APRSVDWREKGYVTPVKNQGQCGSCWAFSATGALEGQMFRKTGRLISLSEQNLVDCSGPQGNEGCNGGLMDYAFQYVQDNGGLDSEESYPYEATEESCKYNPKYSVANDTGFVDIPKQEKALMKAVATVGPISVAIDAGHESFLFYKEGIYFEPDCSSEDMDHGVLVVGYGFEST
Chain of UniProt P07711 (P07711 292-333, chain 2 of 2): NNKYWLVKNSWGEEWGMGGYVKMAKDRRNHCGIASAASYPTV

Substance: Equistatin (from UniProt P81439)
Ki (Cathepsin L): 0.051 nM
Ki (Cathepsin B): 1.4 nM
Ki (Papain (Carica papaya) [1]): 0.57 nM

Substance: Jn-IV (from UniProt P16344)
Kd (Trypsin (Bos taurus) [2]): 9.6 nM

Substance: Elastase inhibitor AEI (from UniProt P16895)
Ki [3]: 1000 nM

Substance: rBmKTT-2 (from UniProt P0DJ50)
Kd (Trypsin (Bos taurus) [4]): 420 nM

Substance: Bt-KTI (from UniProt D8KY58)
Ki (Plasmin (Homo sapiens) [5]): 2.01 nM

Substance: SA5 II (from UniProt P10280)
Kd (Trypsin (Bos taurus) [6]): 0.3 nM

Substance: rLmKTT-1b (SdPI) (from UniProt P0DJ45)
Kd (Trypsin (Bos taurus) [7]): 160 nM

Substance: rBmKTT-1 (from UniProt P0DJ49)
Kd (Trypsin (Bos taurus) [8]): 136 nM

Substance: rLmKTT-1c (from UniProt P0DJ48)
Kd (Trypsin (Bos taurus) [9]): 124 nM

Substance: CBPTI-1 (from UniProt A8Y7N4)
Ki (Trypsin (Bos taurus) [10]): 407 nM

Substance: Toxin I (from UniProt P00979)
Kd (Kv1.1): < 20 nM
Kd (Kv1.6): < 20 nM
Kd (Kv1.2): < 20 nM

Substance: BF9 (from UniProt P25660)
Kd [11]: 58 nM

Ki (Papain (Carica papaya) [12]): 0.6 nM
Substance: Equistatin N-terminal domain (from UniProt P81439)

Substance: Kalicludin-3 (AsKC3) (from UniProt Q9TWF8)
Kd (Trypsin (Bos taurus) [13]): < 30 nM

Substance: ShPI-1 (from UniProt P31713)
Kd [14]: 2.3 nM
Kd (Plasmin (Homo sapiens) [15]): 2.7 nM
Kd (Trypsin (Bos taurus) [16]): 0.11 nM

Substance: Elastase inhibitor (from UniProt P16895)
Kd [17]: 1 nM

Substance: CBPTI-2 (from UniProt A8Y7N5)
Ki (Trypsin (Bos taurus) [18]): 666 nM

Ki [19]: 270 nM
Ki (Trypsin (Bos taurus) [20]): 0.34 nM
Substance: Trypsin inhibitor I (from UniProt P00991)

Kd (Trypsin (Bos taurus) [21]): 1.92 nM
Substance: Albumin-1 (from UniProt Q3T478)

Substance: NACI (from UniProt Q5ZPJ7)
Ki [22]: 25 nM

Ki (Trypsin (Bos taurus) [23]): 5100 nM
Ki [24]: 4.3 nM
Substance: Chymotrypsin inhibitor (from UniProt P00992)

Substance: Bi-KTI (from UniProt G3LH89)
Ki (Plasmin (Homo sapiens) [25]): 3.6 nM

Substance: Bungaruskunin (from UniProt B2KTG1)
Ki [26]: 6100 nM

Ki [27]: 2.55 nM
Substance: CBPTI-3 (from UniProt A8Y7N6)

Substance: rLmKTT-1a (from UniProt P0DJ46)
Kd (Trypsin (Bos taurus) [28]): 140 nM

Substance: APHC1 (from UniProt B2G331)
Kd [29]: 5000 nM
Kd (Trypsin (Bos taurus) [30]): 1000 nM

Ki [31]: 170 nM
Ki (Trypsin (Bos taurus) [32]): 170 nM
Substance: OH-TCI (native) (from UniProt B6RLX2)

Substance: Kalicludin-1 (AsKC1) (from UniProt Q9TWG0)
Kd (Trypsin (Bos taurus) [33]): < 30 nM

Ki (Trypsin (Bos taurus) [34]): 0.0035 nM
Substance: Trypsin inhibitor (from UniProt P20229)

Substance: Dendrotoxin E (from UniProt P00984)
Kd (Trypsin (Bos taurus) [35]): 1 nM
Kd [36]: 100 nM

Ki (Cathepsin D): 0.3 nM
Substance: Equistatin second domain (from UniProt P81439)

Ki (Trypsin (Bos taurus) [37]): 55.6 nM
Substance: PILP-1 (from UniProt B4ESA2)

Substance: rHg1 (from UniProt P0C8W3)
Kd (Trypsin (Bos taurus) [38]): 107 nM

Substance: AvKTI (from UniProt Q8T3S7)
Ki (Trypsin (Bos taurus) [39]): 7.34 nM
Ki [40]: 37.8 nM
Ki (Plasmin (Homo sapiens) [41]): 4.89 nM
Ki [42]: 169 nM

Substance: Kalicludin-2 (AsKC2) (from UniProt Q9TWF9)
Kd (Trypsin (Bos taurus) [43]): < 30 nM

Substance: Textilinin-2 (from UniProt Q90WA0)
Ki (Plasmin (Homo sapiens) [44]): 2.2 nM

Substance: Pr-mulgin 1 (from UniProt E7FL11)
Ki (Metalloprotease 2): 60 nM
